Molecular target: binding sites on guinea-pig eosinophils (guinea-pig)
Test: radioligand binding, 0.1 nM 125I-RANTES on 4x10^5 guinea-pig eosinophils, no competitor

BO: 14.4%
Substance: recombinant human RANTES (from UniProt P13501 24-91) (ligand)
